For orientation: stoichiometry N means the number of molecules, sites or subunits per partner or assembly.

Data on 7 molecules can be found in paper PMC7943601, “Substrate-engaged type III secretion system structures reveal gating mechanism for unfolded protein translocation” (Nature Communications, 2021).

B2: SpaR (natural protein)
chain: MFYALYFEIHHLVASAALGFARVAPIFFFLPFLNSGVLSGAPRNAIIILVALGVWPHALNEAPPFLSVAMIPLVLQEAAVGVMLGCLLSWPFWVMHALGCIIDNQRGATLSSSIDPANGIDTSEMANFLNMFAAVVYLQNGGLVTMVDVLNKSYQLCDPMNECTPSLPPLLTFINQVAQNALVLASPVVLVLLLSEVFLGLLSRFAPQMNAFAISLTVKSGIAVLIMLLYFSPVLPDNVLRLSFQATGLSSWFYERGATHVLE
notes: SpaR, export apparatus protein of the S. enterica sv; Typhimurium injectisome; One copy in the export apparatus
B6: SpaP (natural protein)
chain: MGNDISLIALLAFSTLLPFIIASGTCFVKFSIVFVMVRNALGLQQIPSNMTLNGVALLLSMFVMWPIMHDAYVYFEDEDVTFNDISSLSKHVDEGLDGYRDYLIKYSDRELVQFFENAQLKRQYGEETETVKRDKDEIEKPSIFALLPAYALSEIKSAFKIGFYLYLPFVVVDLVVSSVLLALGMMMMSPVTISTPIKLVLFVALDGWTLLSKGLILQYMDIAT
notes: SpaP, export apparatus protein of the S. enterica sv; Typhimurium injectisome; Five copies in the export apparatus (SpaP : Q : R 5 : 4 : 1); also called SpaP1-5; SpaP pentamer
B7: InvG (natural protein)
chain: SEKIPVTGSGFVAKDDSLRTFFDAMALQLKEPVIVSKMAARKKITGNFEFHDPNALLEKLSLQLGLIWYFDGQAIYIYDASEMRNAVVSLRNVSLNEFNNFLKRSGLYNKNYPLRGDNRKGTFYVSGPPVYVDMVVNAATMMDKQNDGIELGRQKIGVMRLNNTFVGDRTYNLRDQKMVIPGIATAIERLLQGEEQPLGNIVSSEPPAMPAFSANGEKGKAANYAGGMSLQEALKQNAAAGNIKIVAYPDTNSLLVKGTAEQVHFIEMLVKALDVAKRHVELSLWIVDLNKSDLERLGTSWSGSITIGDKLGVSLNQSSISTLDGSRFIAAVNALEEKKQATVVSRPVLLTQENVPAIFDNNRTFYTKLIGERNVALEHVTYGTMIRVLPRFSADGQIEMSLDIEDGNDKTPQSDTTTSVDALPEVGRTLISTIARVPHGKSLLVGGYTRDANTDTVQSIPFLGKLPLIGSLFRYSSKNKSNVVRVFMIEPKEIVDPLTPDASESVNNILKQSGAWSGDDKLQKWVRVYLDRGQEAIK
notes: InvG, basal body ring protein (outer rings) of the S. enterica sv; Typhimurium injectisome; modelled as G34-I173 (lower OR) and E174-G557 (upper OR); Printed as InvG_(1-15/16); the upper outer ring was built in a C15-symmetrized map; also called InvG_(1-15/16); outer rings

What all share (assay): cryo-EM structure
The target of the data set “SpaP” is B6. The note with it: both partners purified.
The data set “cryo-EM structure” deals with the molecule itself.
Another data set concerns the target T1, PrgJ (S. enterica sv. Typhimurium (endogenous …, UniProt P41785 1-101)).
T1 construct: PrgJ, inner rod protein of the S. enterica sv; Typhimurium injectisome; Six protomers form the inner rod; also called PrgJ1-6; inner rod protein
The note with it: both partners purified.

The data set “InvG” concerns the target B7. The note with it: both partners purified.
The target of the data set “SpaR” is B2. The note with it: both partners purified.

T1 sequence (P41785 whole entry): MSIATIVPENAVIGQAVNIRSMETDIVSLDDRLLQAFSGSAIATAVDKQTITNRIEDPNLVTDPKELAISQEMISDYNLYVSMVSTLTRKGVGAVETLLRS

B1: PrgI (natural protein)
chain: MATPWSGYLDDVSAKFDTGVDNLQTQVTEALDKLAAKPSDPALLAAYQSKLSEYNLYRNAQSNTVKVFKDIDAAIIQNFR
notes: PrgI, needle filament protein of the S. enterica sv; Typhimurium injectisome; Helical filament; 72 subunits were modelled in the substrate-trapped map; also called PrgI_(1-72); needle filament protein
As to B1, the binding result in the data set with SpaP, in the data set “cryo-EM structure”, in the data set with PrgJ and with InvG was “binds” each time.

For the molecule B2, the binding result with PrgJ is reported as “binds”.

B3: SpaQ (natural protein)
chain: MDDLVFAGNKALYLVLILSGWPTIVATIIGLLVGLFQTVTQLQEQTLPFGIKLLGVCLCLFLLSGWYGEVLLSYGRQVIFLALAKG
notes: also called SpaQ1-4
For the molecule B3, the binding result with SpaP and in the data set with SpaR was “binds” each time. Also, in “cryo-EM structure”, the “stoichiometry N” value is 4.

B4: PrgH (natural protein)
chain: METSKEKTITSPGPYIVRLLNSSLNGCEFPLLTGRTLFVVGQSDALTASGQLPDIPADSFFIPLDHGGVNFEIQVDTDATEIILHELKEGNSESRSVQLNTPIQVGELLILIRPESEPWVPEQPEKLETSAKKNEPRFKNGIVAALAGFFILGIGTVGTLWILNSPQRQAAELDSLLGQEKERFQVLPGRDKMLYVAAQNERDTLWARQVLARGDYDKNARVINENEENKRISIWLDTYYPQLAYYRIHFDEPRKPVFWLSRQRNTMSKKELEVLSQKLRALMPYADSVNITLMDDVTAAGQAEAGLKQQALPYSRRNHKGGVTFVIQGALDDVEILRARQFVDSYYRTWGGRYVQFAIELKDDWLKGRSFQYGAEGYIKMSPGHWYFPSPL
notes: PrgH, basal body ring protein of the S. enterica sv; Typhimurium injectisome; also called PrgH_(1-24); copies: 24
On to B4, for which, in “cryo-EM structure”, the “stoichiometry N” value was 24.

B5: PrgK (natural protein)
chain: CKDKDLLKGLDQEQANEVIAVLQMHNIEANKIDSGKLGYSITVAEPDFTAAVYWIKTYQLPPRPRVEIAQMFPADSLVSSPRAEKARLYSAIEQRLEQSLQTMEGVLSARVHISYDIDAGENGRPPKPVHLSALAVYERGSPLAHQISDIKRFLKNSFADVDYDNISVVLSERSDAQLQAPGTPVKRNSFATSWIVLIILLSVMSAGFGVWYYKNHYARNKKGITADDKAKSSNE
notes: PrgK, basal body ring protein of the S. enterica sv; Typhimurium injectisome; also called PrgK_(1-24); copies: 24
B5: in “cryo-EM structure”, the “stoichiometry N” value turned out to be 24.

With B6, the “stoichiometry N” value in “cryo-EM structure” was found to be 5. Also, the binding result with SpaR and in the data set with PrgJ was “binds” each time.

Take B7: in the data set with PrgJ, the binding result is “binds”.
